This passage reports Kd and IC50 results from the Immune Epitope Database (IEDB).

Assay [1] addresses HLA-B*58:01. Nature of the assay: IEDB peptide-MHC binding, purified MHC/competitive/fluorescence; filed as Kd, often an IC50 or EC50 that approximates it; ≥ and ≤ were set here for values at or beyond the usual limits of such assays. To be noted: source organism: Escherichia coli F11.
The target in the next assay is HLA-B*27:05. Described as above. To be noted: source organism: Shigella boydii CDC 3083-94.
The target of the next assay is HLA-B*39:01. Described as above.
In the next assay the target is HLA-B*40:02. Nature of the assay: IEDB peptide-MHC binding, purified MHC/competitive/fluorescence; ≥ and ≤ were set here for values at or beyond the usual limits of such assays.
The target in the next assay is HLA-B*44:02. The assay is described as above. To be noted: source organism: Homo sapiens.
A further assay addresses HLA-A*02:16. The assay is described as follows: IEDB peptide-MHC binding, purified MHC/competitive/fluorescence; filed as Kd, often an IC50 or EC50 that approximates it; ≥ and ≤ were set here for values at or beyond the usual limits of such assays. To be noted: source organism: Giardia lamblia ATCC 50803.
For another assay, the target named is HLA-A*02:03. The description is as above. To be noted: source organism: Giardia lamblia ATCC 50803.
The next assay has as its target HLA-A*69:01. Described as above. Particulars: source organism: Giardia lamblia ATCC 50803.
A further assay addresses HLA-A*26:01. Described as above. Particulars: source organism: Giardia lamblia ATCC 50803.
In assay [2] the target is HLA-A*02:01. The assay is described as above. To be noted: source organism: Giardia lamblia ATCC 50803.
The target of another assay is HLA-A*02:12. The description is as above. To be noted: source organism: Giardia lamblia ATCC 50803.
The target in assay [3] is HLA-A*03:01. Described as above. Particulars: source organism: Giardia lamblia ATCC 50803.
Assay [4] deals with HLA-A*68:02. Described as above. Particulars: source organism: Giardia lamblia ATCC 50803.
Assay [5] has as its target HLA-A*25:01. The assay is described as above. Particulars: source organism: Giardia lamblia ATCC 50803.
Another assay has as its target HLA-B*27:03. Described as above. To be noted: source organism: Giardia lamblia ATCC 50803.
A further assay has as its target HLA-B*46:01. Described as above. To be noted: source organism: Giardia lamblia ATCC 50803.
The target in assay [6] is HLA-A*29:02. Described as above. To be noted: source organism: Giardia lamblia ATCC 50803.
The next assay deals with HLA-A*02:19. The assay is described as above. To be noted: source organism: Giardia lamblia ATCC 50803.
The next assay concerns the target HLA-B*40:01. The description is as above. To be noted: source organism: Bacillus cereus G9241.
A further assay concerns the target HLA-A*02:05. Nature of the assay: IEDB peptide-MHC binding, purified MHC/competitive/radioactivity; filed as Kd, often an IC50 or EC50 that approximates it; ≥ and ≤ were set here for values at or beyond the usual limits of such assays. To be noted: source organism: Homo sapiens.
The target in a further assay is HLA-B*18:01. The assay is described as follows: IEDB peptide-MHC binding, purified MHC/competitive/fluorescence; ≥ and ≤ were set here for values at or beyond the usual limits of such assays. To be noted: source organism: Monodelphis domestica.
A further assay concerns the target HLA-B*35:01. The assay is described as above. To be noted: source organism: Monodelphis domestica.
A further assay concerns the target HLA-B*08:01. Described as above. Particulars: source organism: Monodelphis domestica.
The target in a further assay is HLA-B*53:01. The assay is described as above. Particulars: source organism: Monodelphis domestica.
In another assay the target is HLA-B*14:02. The assay is described as above. Particulars: source organism: Monodelphis domestica.
In assay [7] the target is HLA-A*02:01. Described as above. To be noted: source organism: Monodelphis domestica.
The target in another assay is HLA-A*11:01. The assay is described as above. Particulars: source organism: Monodelphis domestica.
Assay [8] has as its target HLA-A*03:01. The description is as above. To be noted: source organism: Monodelphis domestica.
A further assay addresses HLA-B*37:01. Described as above. Particulars: source organism: Monodelphis domestica.
In a further assay the target is HLA-B*44:03. The assay is described as above. Particulars: source organism: Monodelphis domestica.
For assay [9], the target named is HLA-B*58:01. Described as above. To be noted: source organism: Monodelphis domestica.
In a further assay the target is HLA-B*51:01. The description is as above. Particulars: source organism: Monodelphis domestica.
Assay [10] concerns the target HLA-A*68:02. The assay is described as above. Particulars: source organism: Monodelphis domestica.
Assay [11] has as its target HLA-A*25:01. Described as above. To be noted: source organism: Monodelphis domestica.
The target in a further assay is HLA-A*24:02. The description is as above. To be noted: source organism: Monodelphis domestica.
In assay [12] the target is HLA-A*29:02. Described as above. To be noted: source organism: Monodelphis domestica.
The next assay concerns the target HLA-B*07:02. The assay is described as above. Particulars: source organism: Monodelphis domestica.
In another assay the target is HLA-A*31:01. The description is as above. Particulars: source organism: Monodelphis domestica.
The next assay addresses HLA-A*01:01. The assay is described as above. To be noted: source organism: Monodelphis domestica.

For QHFGLIPQW, the Kd in the assay with HLA-B*58:01 [1] turned out to be 0.143 µM.

As to WRLVYASAV, the Kd with HLA-B*27:05 turned out to be 0.0753 µM; in the assay with HLA-B*39:01 (source organism: Shigella boydii CDC 3083-94) it was 0.0118 µM.

For the sequence SDFQVHFL, the figures for the IC50 with HLA-B*40:02 (source organism: Homo sapiens) and with HLA-B*44:02 were 0.0124 µM and not below 20 µM, respectively.

Regarding KVSWRWMVY, the Kd with HLA-A*02:16, with HLA-A*02:03, with HLA-A*69:01, with HLA-A*26:01, with HLA-A*02:01 [2] and with HLA-A*02:12 was not below 20 µM each time. In addition, the Kd in the assay with HLA-A*03:01 [3] was 0.0043 µM; with HLA-A*68:02 [4], not below 20 µM; in the assay with HLA-A*25:01 [5], not below 20 µM; with HLA-B*27:03 it was not below 20 µM; in the assay with HLA-B*39:01 (source organism: Giardia lamblia ATCC 50803), not below 20 µM; with HLA-B*46:01 it was not below 20 µM. Also, the Kd was 0.148 µM in the assay with HLA-A*29:02 [6] and not below 20 µM with HLA-A*02:19.

For the sequence GEIVLCHVL, the Kd with HLA-B*40:01 was found to be 0.005 µM.

As for RLFPGLAIKI, in the assay with HLA-A*02:05, the Kd was determined as 0.09 µM.

Regarding FLLPILSQIYT, the IC50 with HLA-B*18:01 is not below 20 µM; with HLA-B*35:01 it was 0.206 µM; in the assay with HLA-B*08:01, not below 20 µM; with HLA-B*53:01, not below 20 µM; in the assay with HLA-B*40:02 (source organism: Monodelphis domestica), not below 20 µM; with HLA-B*14:02 it was not below 20 µM. Moreover, the IC50 in the assay with HLA-A*02:01 [7] was 0.0053 µM; with HLA-A*11:01 it was not below 20 µM; with HLA-A*03:01 [8], not below 20 µM; with HLA-B*37:01, not below 20 µM; with HLA-B*44:03 it was not below 20 µM; with HLA-B*58:01 [9], not below 20 µM. Besides, the IC50 with HLA-B*51:01 is not below 20 µM; with HLA-A*68:02 [10], not below 20 µM; with HLA-A*25:01 [11] it was not below 20 µM; with HLA-A*24:02, not below 20 µM; with HLA-A*29:02 [12], 0.206 µM; with HLA-B*07:02, not below 20 µM. The IC50 with HLA-A*31:01 and with HLA-A*01:01 was not below 20 µM throughout.
